Literature values as cited in article PMC2847435.

What was measured:
[1] = target: Src pY527 tail pY527 tail (UniProt P12931)
[2] = target: PDZ ligand peptide VKESLV
[3] = target: PDZ ligand peptide VKQSLL

| Substance | Kd [1] [µM] | Kd [2] [µM] | Kd [3] [µM] |
| --- | --- | --- | --- |
| Src SH2 domain SH2 (from UniProt P12931) | 29 | – | – |
| syntrophin PDZ domain PDZ (from UniProt Q61234) | – | 8 | 100 |
